For series [1], the target named is T1, His6-SUMO-TDP-43 (UniProt Q13148 1-414). Description: fluorescence anisotropy. (In general: Fluorescence polarisation rises when a labelled molecule tumbles more slowly, as on binding a larger partner.)
Series [2] has as its target T1, His6-SUMO-TDP-43. Description: fluorescence anisotropy. This is another data set of the same source.

T1 sequence (Q13148 whole entry): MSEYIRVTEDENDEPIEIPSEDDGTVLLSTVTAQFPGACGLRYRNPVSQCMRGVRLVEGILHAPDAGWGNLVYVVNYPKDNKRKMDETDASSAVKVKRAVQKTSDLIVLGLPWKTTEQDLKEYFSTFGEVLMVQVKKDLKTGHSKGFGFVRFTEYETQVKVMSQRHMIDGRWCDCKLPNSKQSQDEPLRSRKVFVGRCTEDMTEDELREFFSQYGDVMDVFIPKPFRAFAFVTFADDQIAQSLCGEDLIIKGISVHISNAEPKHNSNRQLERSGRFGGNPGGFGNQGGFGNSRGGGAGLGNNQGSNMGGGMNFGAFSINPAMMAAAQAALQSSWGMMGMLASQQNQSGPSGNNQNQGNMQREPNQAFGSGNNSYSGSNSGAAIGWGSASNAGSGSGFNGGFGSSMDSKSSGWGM

B1: (AC)4 (ssDNA)
DNA: ACACACAC
For the molecule B1, in the series with His6-SUMO-TDP-43 [1], the binding result is on record as “no binding”.

B2: (TG)4 (ssDNA)
DNA: TGTGTGTG
On to B2, for which the Kd with His6-SUMO-TDP-43 [2] is about 1800 nM.

In general, Kd refers to the concentration at which binding is half-saturated. The low end stands for a tighter complex, the high end for a looser complex.

The record behind these values is article doi:10.64898/2025.12.10.693404.
